In the DeepSol protein solubility set:

Assay: soluble on expression in E. coli; label from the status in PepcDB or PDB records

Q: With “SLQAINPNWNVPKNIHAFTTTREGGVSLAPYLSFNLGDHVGDNKSAVKTNRTLLVEKFGLPQTPIFLTQTHSTRVIQLPYSGQNLEADAVYTNVPNQVCVVMTADCLPVLFTTTSGNEVAATHAGWRGLCDGVLEETVKYFQAKPEDIIAWFGPAIGPKAFQVGIDVVEKFVVVDEKAKLAFQPDAIEEGKYLSNLYQIATQRLNNLGITQIYGGNHCTFNEKEKFFSYRRDNQTGRMASVIWFE” as the sequence, how does the “soluble on expression in E. coli” value read?
A: The value was “soluble”.

Q: With “SLQQSAKKNAAPAPAAQPAPAPTQPQADGAQQAGWVVRCTSVSRDAPLECAMEQNAVLTKTGQTIVLINIRIAPDTRTPVALLQLPLGLNLPIGAKLQVDEGKTVDLQIQTCENRGCYASTPIAADLLAALRSGKQLKVSFQNMAKETIAIPMPLGDFAAAYDKIK” as the sequence, how does the “soluble on expression in E. coli” value read?
A: Its value is “not soluble”.

Q: With “SLRGWRGLRVYDMHVHLHEYSDREVEEILDADKSLVVVAVSDDLESAWRTLDLWHTFGGRVVPCLGFHPWNVREGRVWEAWEVLRLAYRYGVPCLGEVGLDRRFVDEYTWRVQNEVFDAFVQLAEDMGVMLNIHAPDAWKHVAHRIGWTSRARFMYHWYTGPATLPRALPEGRVWFSINSAIRVQEKSVRVAREIPLRSLVVESDGPYNYRGLRLSPLMVRETVKLVAEARGEDPGRLMEAISLNSERLLGLL” as the sequence, how does the “soluble on expression in E. coli” value read?
A: Its value is “soluble”.

Q: For “SLSLLIDIVDETGSVSEEMLKEVENLLQFAAEREGVQDQAEVSVTIVSNDDIHQINKEYRGKDAPTDVISFALEEEGEGEIEIVGAEMPPVLGNIIISADRTREQAEEYNHSFKRELGFLAVHGFLHLLGYDHMTKEEEEEMFTKQKELLDAYGLKRS”, which “soluble on expression in E. coli” value is on record?
A: Its value is “soluble”.

Q: Which “soluble on expression in E. coli” value does the source give for “SLSPPVVMSRMFGAQLFNGTSADSGATVGFNPDYILNPGDSIQVRLWGAFTFDGALQVDPKGNIFLPNVGPVKVAGVSNSQLNALVTSKVKEVYQSNVNVYASLLQAQPVKVYVTGFVRNPGLYGGVTSDSLLNYLIKAGGVDPERGSYVDIVVKRGNRVRSNVNLYDFLLNGKLGLSQFADGDTIIVGPRQHTFSVQGDVFNSYDFEFRESSIPVTEALSWARPKPGATHITIMRKQGLQKRSEYYPISSAPGRMLQNGDTLIVSTDRYAGTIQVRVEGAHSGEHAMVLPYGSTMRAVLEKVRPNSMSQMNAVQLYRPSVAQRQKEMLNLSLQKLEEASLSAQSSTKEEASLRMQEAQLISRFVAKARTVVPKGEVILNESNIDSVLLEDGDVINIPEKTSLVMVHGEVLFPNAVSWQKGMTTEDYIEKCGGLTQKSGNARIIVIRQNGAAVNAEDVDSLKPGDEIMVLPKYESKNIEVTRGISTILYQLAVGAKVILSL” here?
A: Its value is “soluble”.

Q: Which “soluble on expression in E. coli” value does the source give for “SLTDRLERKLAIAANQDKADLLIKNGQIVDVFQLETFEGDVVIADGEIVAISDPGTYEAHEEVDAKGAFIAPAFIDGHVHIESSMVAPEQFAKVVVPHGVTTVIADPHEIANVAGVQGVEYMLDASEGIPLDVKMMVPSCVPATPFEHSGARLTAEEVAELFRDPRIFGLGEVMDYPAVLTRDQEMMAKLKAAHSEGRIVDGHGAGLDSVALNAYTAAGIGNDHEAVTPEEAKARLQRGMYLLIREGTAAKDFDALMKAITPMNSRRALFVTDDKHLDELVEEGSIDHHVRKAIQIGVNPLQAIQMASLNAAECFKLAKKGAIAPGFTADLLFIEDLQSLAITHVFKNGTCVAKNGKLIVPIRETVQPPQRLLESVNMKLVTKEQLELSLQSDEEAHLIQIQPGSIVTKHIREKVAVKDGVFIPSVARDQLKLVVAERHHKRGTVGVGIVKGFGLTKGAIATTVAHDSHNIVAVGTNDEDLLAAIKELENIQGGMTIVKDGKVLVSLPLTIGGLMSDQSYDVVCEQIKSVDAAIGALGFVGDFNPFLTLSFLALPVIPEIKLTDQGLFDVTSFSFIDQQVYAEETN” here?
A: The value was “soluble”.

Q: Which “soluble on expression in E. coli” value does the source give for “SLTNKLESNYNKIACNIFYDKYKNANEIIKALKLIDIDDNDFKKSFSIYSKKATSGNDEKIVKFLLFNIERHLSGGICDEQIATIEHILPSSLNDEKVHKLGNYILLEAKYNQQLKNKNFKEKIDIYSKSNFKLAQYVAENFKTWDTKSIDQYQNFLAKQALALWKF” here?
A: The value was “soluble”.

Q: For “SLVDLAADILVADAHMHTNPTRGLGAREVARRFRREGGWFAALLTLTTWSYGLAPTGVEAYRRMYEIHLRECRAAREEGLRVACFAGIHPAEVDRMIDKHRQPPEKALETALEAVEVLRRLCREGAIDGVGEVGRQHYRTSPLRVAIAEVVLEEAAAAALEEGCLLQLHLENEGPATVETVDRILRRAGATGARRGMVIFHHATLRVAKEAVARGYNATIPGVPKLLEHAAANEPPDYMVESDYLDDPARPGAVVEPWKMAQKLREIASRTPETREWVRRTNIDLVERVFQASPP”, which “soluble on expression in E. coli” value is on record?
A: Its value is “not soluble”.

Q: Which “soluble on expression in E. coli” value does the source give for “SLVIIYDGDSYGISKRIDYMLNSTTSSGKRTGILAIGAHPDDIELGCGASLSYYSNEKVYIISVVMTPGCCGAEYIDRHKESQEALNMLGCNKLIPLNFEDTRLYLQIKEMISSLEYIIENETPQDVEITRVYTMNNTDRHQDHIAVYQASMVACRYIPQILGYETPSTCLSFLPQVFESVDEVHFNKKILALQKHKSQIHRRYIQPEYIIAQAKFRGQQVSHSMCEGFVVHKMVL” here?
A: Its value is “soluble”.

Q: Which “soluble on expression in E. coli” value does the source give for “SLVTLGEGFEKARLTRFLEKFGGNEGSQFLYLKDYGHFYYQEEGEDQVLFGFQMKFNKCFVLADPIGQREKWTAATLAFMDQADLLGYQLVFYRISEEYVMNLHDCGFEFMKVGEEGLIQFDEPSTVNQTAWTETVTEKIAAEAADFQFEFYPETISDALYQELERVSADWSRNQKERYFIGGRLDPEYLKCSSVGLVRQKQTVIGFITGKEMEKGKSISYDLLRIRSDAPAFTREYLFTHFIETYQQQGYQLIDIGMAPLANVGESKYSFLKERFVNIFYKYSYQIYAFQDTRKRKEQYVTSWQPRYFAYPKRTSVLFAFVQLSLLITKGRHQSVSLVEEAMTEI” here?
A: Its value is “not soluble”.

Q: With “SMFEIKKICCIGAGYVGGPTCSVIAHMCPEIRVTVVDVNESRINAWNSPTLPIYEPGLKEVVESCRGKNLFFSTNIDDAIKEADLVFISVNTPTKTYGMGKGRAADLKYIEACARRIVQNSNGYKIVTEKSAVPVRAAESIRRIFDANTKPNLNLQVLSNPEFLAEGTAIKDLKNPDRVLIGGDETPEGQRAVQALCAVYEHWVPREKILTTNTWSSELSKLAANAFLAQRISSINSISALCEATGADVEEVATAIGMDQRIGNKFLKASVGFGGSCFQKDVLNLVYLCEALNLPEVARYWQQVIDMNDYQRRRFASRIIDSLFNTVTDKKIAILGFAFKKDTGDTRESSSIYISKYLMDEGAHLHIYDPKVPREQIVVDLSHPGVSEDDQVSRLVTISKDPYEACDGAHAVVICTEWDMFKELDYERIHKKMLKPAFIFDGRRVLDGLHNELQTIGFQIETIGKKV” as the sequence, how does the “soluble on expression in E. coli” value read?
A: Its value is “soluble”.

Q: Which “soluble on expression in E. coli” value does the source give for “SMQEKIMRELHVKPSIDPKQEIEDRVNFLKQYVKKTGAKGFVLGISGGQDSTLAGRLAQLAVESIREEGGDAQFIAVRLPHGTQQDEDDAQLALKFIKPDKSWKFDIKSTVSAFSDQYQQETGDQLTDFNKGNVKARTRMIAQYAIGGQEGLLVLGTDHAAEAVTGFFTKYGDGGADLLPLTGLTKRQGRTLLKELGAPERLYLKEPTADLLDEKPQQSDETELGISYDEIDDYLEGKEVSAKVSEALEKRYSMTEHKRQVPASMFDDWWK” here?
A: The value was “soluble”.

Q: Which “soluble on expression in E. coli” value does the source give for “SMSAGPWKMVVWDEDGFQGRRHEFTAECPSVLELGFETVRSLKVLSGAWVGFEHAGFQGQQYILERGEYPSWDAWGGNTAYPAERLTSFRPAACANHRDSRLTIFEQENFLGKKGELSDDYPSLQAMGWEGNEVGSFHVHSGAWVCSQFPGYRGFQYVLECDHHSGDYKHFREWGSHAPTFQVQSIRRIQQ” here?
A: Its value is “soluble”.

Q: Which “soluble on expression in E. coli” value does the source give for “SMSDVTIVKEGWVQKRGEYIKNWRPRYFLLKTDGSFIGYKEKPQDVDLPYPLNNFSVAKCQLMKTERPKPNTFIIRCLQWTTVIERTFHVDTPEEREEWTEAIQAVADRLQRQEEERMN” here?
A: Its value is “soluble”.

Q: For “SNAAQQVQQPVAQQQVQQPAQQNTNTANAGGNQNQAAPVQNQPVAQPTDIDGTYTGQDDGDRITLVVTGTTGTWTELESDGDQKVKQVTFDSANQRMIIGDDVKIYTVNGNQIVVDDMDRDPSDQIVLTK”, which “soluble on expression in E. coli” value is on record?
A: Its value is “soluble”.

Q: With “SNAEMSYELAQHGRSTLPRELAVYALEGPFFFAAAETFERVMGSIQETPQILILRLKWVPFMDITGIQTLEEMIQSFHKRGIKVLISGANSRVSQKLVKAGIVKLVGEQNVYPVFEGALSAALTEIEAQP” as the sequence, how does the “soluble on expression in E. coli” value read?
A: The value was “soluble”.

Q: With “SNALSASEERFQLAVSGASAGLWDWNPKTGAMYLSPHFKKIMGYEDHELPDEITGHRESIHPDDRARVLAALKAHLEHRDTYDVEYRVRTRSGDFRWIQSRGQALWNSAGEPYRMVGWIMDVTDRKRDEDALRVSREELRRL” as the sequence, how does the “soluble on expression in E. coli” value read?
A: Its value is “soluble”.

Q: With “SNAMADWVTGKVTKVQNWTDALFSLTVHAPINPFTAGQFTKLGLEIDGERVQRAYSYVNAPDNPNLEFYLVTVPQGKLSPRLAALKPGDEVQVVSDASGFFVLDEVPDCETLWMLATGTAIGPYLSILQYGQDVARFKNLVLVHAARFAADLSYLPLMLELQQRYEGKLRIQTVVSRENVPGSLTGRVPALIENGELEKAVGLPMDKETSHVMLCGNPQMVRDTQQLLKETRQMTKHLRRRPGHMTAEHYW” as the sequence, how does the “soluble on expression in E. coli” value read?
A: The value was “soluble”.

Q: For “SNAMELEQKLNLLNDLIVREIVNPLPPPYKVGVDLGTADIVLVVTDQEGIPVAGALKWASVVKDGLVVDYIGAIQIVRELKAKVERLLGSELFQAATAIPPGTVGRNAEACGHVVAGAGLELVTLVDEPVAAARALGINDGIVVDIGGGTTGIAVIEKGKITATFDEPTGGTHLSLVLAGSYKIPFEEAETIKKDFSRHREIMRVVRPVIEKMALIVKEVIKNYDQTLPVYVVGGTAYLTGFSEEFSRFLGKEVQVPIHPLLVTPLGIALFG”, which “soluble on expression in E. coli” value is on record?
A: Its value is “soluble”.

Q: With “SNAMIIADNIKQFHSIRNSLIKQQKIGFVPTMGALHNGHISLIKKAKSENDVVIVSIFVNPTQFNNPNDYQTYPNQLQQDIQILASLDVDVLFNPSEKDIYPDGNLLRIEPKLEIANILEGKSRPGHFSGMLTVVLKLLQITKPNNLYLGEKDYQQVMLIKQLVKDFFINTKIIVCPTQRQPSGLPLSSRNKNLTSTDIEIANKIYEILRQDDFSNLEELTNKINSTGAKLQYIQKLNNRIFLAFYIGKVRLIDNFLKETGPSC” as the sequence, how does the “soluble on expression in E. coli” value read?
A: Its value is “soluble”.

Q: Which “soluble on expression in E. coli” value does the source give for “SNAMIKRPIHMSHDFLAEVLDDESIVVDATMGNGNDTAFLAGLSKKVYAFDVQEQALGKTSQRLSDLGIENTELILDGHENLDHYVREPIRAAIFNLGYLPSADKSVITKPHTTLEAIEKILDRLEVGGRLAIMIYYGHDGGDMEKDAVLEYVIGLDQRVFTAMLYQPLNQINTPPFLVMLEKLQ” here?
A: Its value is “soluble”.

Q: For “SNAMILSQQKYNYLAKVSDSNGVISALAFDQRGALKCLMAQYQMKEPTVAQMEELKVLVSEELTPYASSILLDPEYGLPAAQARDREAGLLLAYEKTGYDANTTSRLPDCLVDWSIKRLKEAGADAVKFLLYYDVDGDPQVNVQKQAYIERIGSECQAEDIPFFLEILTYDETISNNSSVEFAKVKVHKVNDAMKVFSAERFGIDVLKVEVPVNMVYVEGFAEGEVVYSKEEAAQAFREQEASTDLPYIYLSAGVSAELFQETLVFAHKAGAKFNGVLCGRATWAGSVQVYMEEGKEAARQWLRTSGLQNINELNKVLKTTASPWTEKVSVG”, which “soluble on expression in E. coli” value is on record?
A: The value was “soluble”.

Q: Which “soluble on expression in E. coli” value does the source give for “SNAMKDKIIDNAITLFSEKGYDGTTLDDIAKSVNIKKASLYYHFDSKKSIYEQSVKCCFDYLNNIIMMNQNKSNYSIDALYQFLFEFIFDIEERYIRMYVQLSNTPEEFSGNIYGQIQDLNQSLSKEIAKFYDESKIKMTKEDFQNLILLFLESWYLKASFSQKFGAVEESKSQFKDEVYSLLNIFLKK” here?
A: Its value is “soluble”.
